Numbering of substitutions follows the chain as printed.

The Kd is the equilibrium constant for the complex coming apart.

Series [1] deals with T1, AtMBD6 MBD domain WT (Arabidopsis thaliana, UniProt Q9LTJ1 78-140).
T1 sequence: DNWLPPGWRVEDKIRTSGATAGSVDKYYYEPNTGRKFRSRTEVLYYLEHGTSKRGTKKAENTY
Briefly: NMR titration (1H-15N HSQC); 20 mM Na phosphate pH 6.5, 150 mM NaCl, 20 C; two-state fit; NMR: 20 mM Na phosphate pH 6.5, 150 mM NaCl, 5% D2O, 20 C; EMSA: 25 mM Tris, 25 mM boric acid, 150 mM NaCl, 5% glycerol, 1 mM DTT, 4 C, 30 min. The following applies: protein: recombinant; tags: GST removed by HRV3C; N-terminal GPLGS remains; blunt; self-complementary.

The target of series [2] is T2, AtMBD6 MBD domain S100R (Arabidopsis thaliana, UniProt Q9LTJ1 78-140, S100R).
T2 sequence: T1 sequence with S23R
Nature of the series: NMR titration (1H-15N HSQC); slow exchange, increased affinity vs WT; no reliable Kd from NMR, ITC or FP; NMR: 20 mM Na phosphate pH 6.5, 150 mM NaCl, 5% D2O, 20 C; EMSA: 25 mM Tris, 25 mM boric acid, 150 mM NaCl, 5% glycerol, 1 mM DTT, 4 C, 30 min. The following applies: protein: recombinant; tags: GST removed by HRV3C; N-terminal GPLGS remains; blunt; self-complementary.

B1: MG (dsDNA)
DNA 1: GGTATGCGCATACC
DNA 2: GGTATGCGCATACC
modifications: 5-methylcytosine at position 7 of both strands (symmetric methyl-CpG)
As for B1, in series [1], the Kd came to 40.2 ± 0.5 µM. For the same molecule, the binding result in series [2] is recorded as “binds”.

The record behind these values is article PMC8811898, “Structural Insights into Methylated DNA Recognition by the Methyl-CpG Binding Domain of MBD6 from Arabidopsis thaliana”.
